T1: human neuropeptide Y2 receptor (human, UniProt P49146 1-381)
T1 construct: whole, on cells; also called hNPY2 receptor; hNPY2-R
T1 sequence (looked up): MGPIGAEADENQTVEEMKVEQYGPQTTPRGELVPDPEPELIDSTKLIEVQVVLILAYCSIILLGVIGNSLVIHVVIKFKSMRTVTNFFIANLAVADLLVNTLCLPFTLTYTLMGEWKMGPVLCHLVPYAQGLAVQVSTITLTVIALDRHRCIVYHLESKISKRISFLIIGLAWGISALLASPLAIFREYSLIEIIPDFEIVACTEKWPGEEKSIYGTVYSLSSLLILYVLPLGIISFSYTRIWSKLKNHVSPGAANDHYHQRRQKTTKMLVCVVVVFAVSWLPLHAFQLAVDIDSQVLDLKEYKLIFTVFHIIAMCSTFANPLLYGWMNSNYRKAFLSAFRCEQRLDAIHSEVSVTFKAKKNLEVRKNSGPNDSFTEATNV

B1: Compound 126 (peptide)
peptide: Isovaleryl-APAK([AEEA-AEEA-γGlu-C18 diacid])PEEDSSPEELQRYYVSLRHYYNWLTRQRY-NH2
SMILES: CC(C)CC(=O)N[C@@H](C)C(=O)N1CCC[C@H]1C(=O)N[C@@H](C)C(=O)N[C@@H](CCCCNC(=O)COCCOCCNC(=O)COCCOCCNC(=O)CC[C@H](NC(=O)CCCCCCCCCCCCCCCCC(=O)O)C(=O)O)C(=O)N1CCC[C@H]1C(=O)N[C@@H](CCC(=O)O)C(=O)N[C@@H](CCC(=O)O)C(=O)N[C@@H](CC(=O)O)C(=O)N[C@@H](CO)C(=O)N[C@@H](CO)C(=O)N1CCC[C@H]1C(=O)N[C@@H](CCC(=O)O)C(=O)N[C@@H](CCC(=O)O)C(=O)N[C@@H](CC(C)C)C(=O)N[C@@H](CCC(N)=O)C(=O)N[C@@H](CCCNC(=N)N)C(=O)N[C@@H](Cc1ccc(O)cc1)C(=O)N[C@@H](Cc1ccc(O)cc1)C(=O)N[C@H](C(=O)N[C@@H](CO)C(=O)N[C@@H](CC(C)C)C(=O)N[C@@H](CCCNC(=N)N)C(=O)N[C@@H](Cc1c[nH]cn1)C(=O)N[C@@H](Cc1ccc(O)cc1)C(=O)N[C@@H](Cc1ccc(O)cc1)C(=O)N[C@@H](CC(N)=O)C(=O)N[C@@H](Cc1c[nH]c2ccccc12)C(=O)N[C@@H](CC(C)C)C(=O)N[C@H](C(=O)N[C@@H](CCCNC(=N)N)C(=O)N[C@@H](CCC(N)=O)C(=O)N[C@@H](CCCNC(=N)N)C(=O)N[C@@H](Cc1ccc(O)cc1)C(N)=O)[C@@H](C)O)C(C)C
B2: Compound 130 (peptide)
peptide: Isovaleryl-APEK([AEEA-AEEA-γGlu-C18 diacid])PEEDTSAEELQRYYVSLRHYYNWLTRQRY-NH2
SMILES: CC(C)CC(=O)N[C@@H](C)C(=O)N1CCC[C@H]1C(=O)N[C@@H](CCC(=O)O)C(=O)N[C@@H](CCCCNC(=O)COCCOCCNC(=O)COCCOCCNC(=O)CC[C@H](NC(=O)CCCCCCCCCCCCCCCCC(=O)O)C(=O)O)C(=O)N1CCC[C@H]1C(=O)N[C@@H](CCC(=O)O)C(=O)N[C@@H](CCC(=O)O)C(=O)N[C@@H](CC(=O)O)C(=O)N[C@H](C(=O)N[C@@H](CO)C(=O)N[C@@H](C)C(=O)N[C@@H](CCC(=O)O)C(=O)N[C@@H](CCC(=O)O)C(=O)N[C@@H](CC(C)C)C(=O)N[C@@H](CCC(N)=O)C(=O)N[C@@H](CCCNC(=N)N)C(=O)N[C@@H](Cc1ccc(O)cc1)C(=O)N[C@@H](Cc1ccc(O)cc1)C(=O)N[C@H](C(=O)N[C@@H](CO)C(=O)N[C@@H](CC(C)C)C(=O)N[C@@H](CCCNC(=N)N)C(=O)N[C@@H](Cc1c[nH]cn1)C(=O)N[C@@H](Cc1ccc(O)cc1)C(=O)N[C@@H](Cc1ccc(O)cc1)C(=O)N[C@@H](CC(N)=O)C(=O)N[C@@H](Cc1c[nH]c2ccccc12)C(=O)N[C@@H](CC(C)C)C(=O)N[C@H](C(=O)N[C@@H](CCCNC(=N)N)C(=O)N[C@@H](CCC(N)=O)C(=O)N[C@@H](CCCNC(=N)N)C(=O)N[C@@H](Cc1ccc(O)cc1)C(N)=O)[C@@H](C)O)C(C)C)[C@@H](C)O
B3: Compound 134 (peptide)
peptide: Isovaleryl-APEK([AEEA-AEEA-γGlu-C18 diacid])PEEDASPEEIQRYYTELRHYYNWLTRQRY-NH2
SMILES: CC[C@H](C)[C@H](NC(=O)[C@H](CCC(=O)O)NC(=O)[C@H](CCC(=O)O)NC(=O)[C@@H]1CCCN1C(=O)[C@H](CO)NC(=O)[C@H](C)NC(=O)[C@H](CC(=O)O)NC(=O)[C@H](CCC(=O)O)NC(=O)[C@H](CCC(=O)O)NC(=O)[C@@H]1CCCN1C(=O)[C@H](CCCCNC(=O)COCCOCCNC(=O)COCCOCCNC(=O)CC[C@H](NC(=O)CCCCCCCCCCCCCCCCC(=O)O)C(=O)O)NC(=O)[C@H](CCC(=O)O)NC(=O)[C@@H]1CCCN1C(=O)[C@H](C)NC(=O)CC(C)C)C(=O)N[C@@H](CCC(N)=O)C(=O)N[C@@H](CCCNC(=N)N)C(=O)N[C@@H](Cc1ccc(O)cc1)C(=O)N[C@@H](Cc1ccc(O)cc1)C(=O)N[C@H](C(=O)N[C@@H](CCC(=O)O)C(=O)N[C@@H](CC(C)C)C(=O)N[C@@H](CCCNC(=N)N)C(=O)N[C@@H](Cc1c[nH]cn1)C(=O)N[C@@H](Cc1ccc(O)cc1)C(=O)N[C@@H](Cc1ccc(O)cc1)C(=O)N[C@@H](CC(N)=O)C(=O)N[C@@H](Cc1c[nH]c2ccccc12)C(=O)N[C@@H](CC(C)C)C(=O)N[C@H](C(=O)N[C@@H](CCCNC(=N)N)C(=O)N[C@@H](CCC(N)=O)C(=O)N[C@@H](CCCNC(=N)N)C(=O)N[C@@H](Cc1ccc(O)cc1)C(N)=O)[C@@H](C)O)[C@@H](C)O
B4: Compound 132 (peptide)
peptide: Isovaleryl-APEK([AEEA-AEEA-γGlu-C18 diacid])PEEDASPEELQKYYVTLRHYYNWLTRQRY-NH2
SMILES: CC(C)CC(=O)N[C@@H](C)C(=O)N1CCC[C@H]1C(=O)N[C@@H](CCC(=O)O)C(=O)N[C@@H](CCCCNC(=O)COCCOCCNC(=O)COCCOCCNC(=O)CC[C@H](NC(=O)CCCCCCCCCCCCCCCCC(=O)O)C(=O)O)C(=O)N1CCC[C@H]1C(=O)N[C@@H](CCC(=O)O)C(=O)N[C@@H](CCC(=O)O)C(=O)N[C@@H](CC(=O)O)C(=O)N[C@@H](C)C(=O)N[C@@H](CO)C(=O)N1CCC[C@H]1C(=O)N[C@@H](CCC(=O)O)C(=O)N[C@@H](CCC(=O)O)C(=O)N[C@@H](CC(C)C)C(=O)N[C@@H](CCC(N)=O)C(=O)N[C@@H](CCCCN)C(=O)N[C@@H](Cc1ccc(O)cc1)C(=O)N[C@@H](Cc1ccc(O)cc1)C(=O)N[C@H](C(=O)N[C@H](C(=O)N[C@@H](CC(C)C)C(=O)N[C@@H](CCCNC(=N)N)C(=O)N[C@@H](Cc1c[nH]cn1)C(=O)N[C@@H](Cc1ccc(O)cc1)C(=O)N[C@@H](Cc1ccc(O)cc1)C(=O)N[C@@H](CC(N)=O)C(=O)N[C@@H](Cc1c[nH]c2ccccc12)C(=O)N[C@@H](CC(C)C)C(=O)N[C@H](C(=O)N[C@@H](CCCNC(=N)N)C(=O)N[C@@H](CCC(N)=O)C(=O)N[C@@H](CCCNC(=N)N)C(=O)N[C@@H](Cc1ccc(O)cc1)C(N)=O)[C@@H](C)O)[C@@H](C)O)C(C)C
B5: Compound 133 (peptide)
peptide: Isovaleryl-APEK([AEEA-AEEA-γGlu-C18 diacid])PEEDASPEEVQRYYVELRHYYNWLTRQRY-NH2
SMILES: CC(C)CC(=O)N[C@@H](C)C(=O)N1CCC[C@H]1C(=O)N[C@@H](CCC(=O)O)C(=O)N[C@@H](CCCCNC(=O)COCCOCCNC(=O)COCCOCCNC(=O)CC[C@H](NC(=O)CCCCCCCCCCCCCCCCC(=O)O)C(=O)O)C(=O)N1CCC[C@H]1C(=O)N[C@@H](CCC(=O)O)C(=O)N[C@@H](CCC(=O)O)C(=O)N[C@@H](CC(=O)O)C(=O)N[C@@H](C)C(=O)N[C@@H](CO)C(=O)N1CCC[C@H]1C(=O)N[C@@H](CCC(=O)O)C(=O)N[C@@H](CCC(=O)O)C(=O)N[C@H](C(=O)N[C@@H](CCC(N)=O)C(=O)N[C@@H](CCCNC(=N)N)C(=O)N[C@@H](Cc1ccc(O)cc1)C(=O)N[C@@H](Cc1ccc(O)cc1)C(=O)N[C@H](C(=O)N[C@@H](CCC(=O)O)C(=O)N[C@@H](CC(C)C)C(=O)N[C@@H](CCCNC(=N)N)C(=O)N[C@@H](Cc1c[nH]cn1)C(=O)N[C@@H](Cc1ccc(O)cc1)C(=O)N[C@@H](Cc1ccc(O)cc1)C(=O)N[C@@H](CC(N)=O)C(=O)N[C@@H](Cc1c[nH]c2ccccc12)C(=O)N[C@@H](CC(C)C)C(=O)N[C@H](C(=O)N[C@@H](CCCNC(=N)N)C(=O)N[C@@H](CCC(N)=O)C(=O)N[C@@H](CCCNC(=N)N)C(=O)N[C@@H](Cc1ccc(O)cc1)C(N)=O)[C@@H](C)O)C(C)C)C(C)C
B6: Compound 131 (peptide)
peptide: Isovaleryl-APEK([AEEA-AEEA-γGlu-C18 diacid])AEEDASPEELQRYYVELRHYYNWLTRQRY-NH2
SMILES: CC(C)CC(=O)N[C@@H](C)C(=O)N1CCC[C@H]1C(=O)N[C@@H](CCC(=O)O)C(=O)N[C@@H](CCCCNC(=O)COCCOCCNC(=O)COCCOCCNC(=O)CC[C@H](NC(=O)CCCCCCCCCCCCCCCCC(=O)O)C(=O)O)C(=O)N[C@@H](C)C(=O)N[C@@H](CCC(=O)O)C(=O)N[C@@H](CCC(=O)O)C(=O)N[C@@H](CC(=O)O)C(=O)N[C@@H](C)C(=O)N[C@@H](CO)C(=O)N1CCC[C@H]1C(=O)N[C@@H](CCC(=O)O)C(=O)N[C@@H](CCC(=O)O)C(=O)N[C@@H](CC(C)C)C(=O)N[C@@H](CCC(N)=O)C(=O)N[C@@H](CCCNC(=N)N)C(=O)N[C@@H](Cc1ccc(O)cc1)C(=O)N[C@@H](Cc1ccc(O)cc1)C(=O)N[C@H](C(=O)N[C@@H](CCC(=O)O)C(=O)N[C@@H](CC(C)C)C(=O)N[C@@H](CCCNC(=N)N)C(=O)N[C@@H](Cc1c[nH]cn1)C(=O)N[C@@H](Cc1ccc(O)cc1)C(=O)N[C@@H](Cc1ccc(O)cc1)C(=O)N[C@@H](CC(N)=O)C(=O)N[C@@H](Cc1c[nH]c2ccccc12)C(=O)N[C@@H](CC(C)C)C(=O)N[C@H](C(=O)N[C@@H](CCCNC(=N)N)C(=O)N[C@@H](CCC(N)=O)C(=O)N[C@@H](CCCNC(=N)N)C(=O)N[C@@H](Cc1ccc(O)cc1)C(N)=O)[C@@H](C)O)C(C)C

*1 amine or outer side, *2 acyl side, *3 side chain or, on linkers, in order; H or OH if unused. Side-chain parts run from the residue outwards. The star is where a group is joined. C18 diacid = O=C(O)CCCCCCCCCCCCCCCCC(=O)*; γGlu = O=C(O)[C@H](CCC(=O)[*:2])N[*:1]; Isovaleryl = CC(C)CC(=O)*; AEEA = NCCOCCOCC(=O)O

As usually defined, the Ki is a measure of affinity in units of concentration, obtained from inhibition or displacement.

This experiment concerns the target T1, human neuropeptide Y2 receptor. The experiment can be described thus: radioligand competition (125I-PYY(1-36)), hNPY2R membranes. A digest of the protocol:
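Commercial human Y2 receptor membranes (0.5 μg protein/well) were incubated with peptide for 2 h at room temperature in 50 mM HEPES, 5 mM MgCl₂, 1 mM CaCl₂, pH 7.4, with 0.2% ovalbumin. Bound radioligand was separated on PEI-soaked GF/C filters and counted by scintillation, and IC₅₀ came from nonlinear sigmoidal regression.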
(Loss of bound radioactivity is the signal in a displacement assay; it reports binding, not function.)
Turning to B1, the Ki was 1.18 nM.

In the case of B2, the Ki is 11.1 nM.

With B3, the Ki worked out at 1.17 nM.

On to B4, for which the inhibitory constant (Ki) was 1.18 nM.

Regarding B5, the inhibitory constant (Ki) worked out at 2.31 nM.

In turn, B6 gave a Ki of 8.54 nM. This Ki lies about 3.7-fold higher than the previous one.

The record behind these values is patent US20210139548A1 (published 2021).
